Assay results from patent US20250236667A1, “ANTIBODIES TO MUTANT CALRETICULIN AND USES THEREOF” (CENTRAL ADELAIDE LOCAL HEALTH NETWORK INC, priority 2021, published 2025).

T1: thrombopoietin receptor (TpoR) (UniProt P40238 26-635, limits assumed)
T1 construct: whole, on cells; It was immunoprecipitated with anti-FLAG beads, so the expressed TpoR evidently carries a FLAG tag; The construct and the position of the tag are not described; also called TPO receptor
T1 sequence (looked up): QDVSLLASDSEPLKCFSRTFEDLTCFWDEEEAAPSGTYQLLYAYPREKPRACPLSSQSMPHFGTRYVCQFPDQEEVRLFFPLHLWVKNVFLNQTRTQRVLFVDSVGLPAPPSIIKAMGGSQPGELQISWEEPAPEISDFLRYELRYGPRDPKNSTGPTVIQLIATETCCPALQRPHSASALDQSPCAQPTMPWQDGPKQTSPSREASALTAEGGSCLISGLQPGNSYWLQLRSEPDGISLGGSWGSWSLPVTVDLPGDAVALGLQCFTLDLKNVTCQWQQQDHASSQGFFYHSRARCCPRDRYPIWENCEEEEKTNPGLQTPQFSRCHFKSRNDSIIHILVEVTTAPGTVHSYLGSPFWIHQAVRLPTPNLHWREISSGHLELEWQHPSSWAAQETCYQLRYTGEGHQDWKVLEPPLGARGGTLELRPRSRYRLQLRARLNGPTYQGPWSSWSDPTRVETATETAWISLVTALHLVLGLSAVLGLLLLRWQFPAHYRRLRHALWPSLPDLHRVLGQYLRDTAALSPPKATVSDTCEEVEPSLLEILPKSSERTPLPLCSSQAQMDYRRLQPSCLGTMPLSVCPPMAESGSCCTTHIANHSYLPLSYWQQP

T2: full-length 30 amino acid CALR mutant neoepitope peptide (peptide used for immunisation) (human)
T2 construct: also called full-length peptide
T2 peptide: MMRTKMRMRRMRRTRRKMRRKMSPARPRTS

B1: wild type calreticulin (CALR) (other, human, UniProt P27797 18-417, looked up)
chain: EPAVYFKEQFLDGDGWTSRWIESKHKSDFGKFVLSSGKFYGDEEKDKGLQTSQDARFYALSASFEPFSNKGQTLVVQFTVKHEQNIDCGGGYVKLFPNSLDQTDMHGDSEYNIMFGPDICGPGTKKVHVIFNYKGKNVLINKDIRCKDDEFTHLYTLIVRPDNTYEVKIDNSQVESGSLEDDWDFLPPKKIKDPDASKPEDWDERAKIDDPTDSKPEDWDKPEHIPDPDAKKPEDWDEEMDGEWEPPVIQNPEYKGEWKPRQIDNPDYKGTWIHPEIDNPEYSPDPSIYAYDNFGVLGLDLWQVKSGTIFDNFLITNDEAYAEEFGNETWGVTKAAEKQMKDKQDEEQRLKEEEEDKKRKEEEEAEDKEDDEDKDEDEEDEEDKEEDEEEDVPGQAKDEL
notes: also called CALR^WT; endogenous wild type CALR
B2: 2D2 rat monoclonal anti-mutant calreticulin antibody (antibody, V domains shown)
VH: QVQLQQSGAELTKPGSSVKISCKTSGYTFTTYDISWIKQRPGQALEWIGAIYPGGVTTGYNEKFKGKATLTVDKSSNTAFMQLSSLTPEDTAVYYCARWGHTTGTRFDHWGQGVMVTVSS
VL: DVLLTQTPVSLSVSLGDQASISCRSSQSLEYSDGYTYLEWYVQKPGQSPQLLIYEVSDRFSGVPDRFIGSGSGTDFTLKISRVEPEDLGVYYCFQATHDPPTFGGGTKLELK
notes: also called rat anti-human mutCALR 2D2

How the values were obtained:
[1] = system: healthy cord blood CD34+ cells; assay: cells; type: cell-based, human; settings: Homo sapiens, 288 h, 12 days, read-out: inhibition of megakaryocyte formation
Method: Umbilical cord blood (UCB) was collected with written consent from full-term deliveries at the Women's Health Unit, Lyell McEwin Hospital (Adelaide, South Australia) or the Department of Obstetrics and Gynecology, Medical University of Graz (Austria) with institutional review board approval (IRB approval: 31-322 ex 18/19; HREC/20/WCHN/65). Samples were processed using a Ficoll-Paque (GE Healthcare) density gradient to isolate mononuclear cells (800×g, room temperature, 30 minutes, deceleration off), followed by red cell lysis (ammonium-chloride-potassium lysing buffer) to remove remaining red blood cells. CD34 enrichment was performed by magnetic cell separation using CD34 Microbead kit (Miltenyi Biotech). Alternatively, purified CD34+ cells from cord-blood were purchased from Lonza. CD34+ cells with a purity above 90% were either cryopreserved or directly cultured in serum-free stem cell retention media (StemSpan SFEMII, Stemcell Technologies, Vancouver, BC, Canada) supplemented with human recombinant SCF, TPO, FLT3, IL-6 (all 20 ng/mL), UM729 (1.75 uM) and StemReginin 1 (SR1, 300 nM). All cytokines and SRI were purchased from PeproTech (Rocky Hill, NJ, USA) whereas UM729 was purchased from Stemcell Technologies.
For megakaryocyte differentiation assays, CD34+ cells derived from cord blood or from patient peripheral blood mononuclear fractions were plated in Megacult (MegaCult™-C Collagen and Medium with Lipids) with added IL-3 and IL-6 (10 ng/ml) in the presence or absence of 50 ng/mL TPO. Cells were plated at an initial density of 1800 cells/well and cultured for 12 days at 37° C. and 5% CO2. […] Culture media was replenished every 3 days and cells were assessed for megakaryocyte differentiation on day 12 using anti-human CD41/61 PE-Cy7 (Clone A2A9/6) and CountBright beads (Thermo Fisher) to enumerate cell numbers. […] Cells were seeded at approximately 100 cells per well and were cultured in the presence of 20 μg/mL 4D7 or control IgG antibody and scored for colony and blast forming units at 12-14 days.

[2] = biological target: T1, thrombopoietin receptor (TpoR); assay: co-immunoprecipitation with anti-FLAG (MPL/TpoR), reducing Western blot
Method: B. Similar experiment using TPO-independent TF-1 TpoR CALR^del61 cells at 4 and 8 hours. C. Similar experiment shown using TPO-independent TF-1 TpoR CALR^del52 cells, 8 hours. D. Flow cytometry analysis for cell cycle distribution of TF-1 TpoR CALR^del61 cells exposed to 20 μg/mL IgG or 4D7 for 48 hours. Cells were harvested and fixed and stained with propidium iodide and their DNA contents were analysed. Results from one representative experiment shown. Percentages of cells in Sub Go, G1. S and G2/M cycle indicated. E. Western blot showing specific co-immunoprecipitation of mutant CALR^del61 cells with TpoR anti-FLAG antibody under reducing conditions detected by total and mutant specific CALR antibodies. Arrowheads represent detected CALR protein. F. Western blot showing decreased TpoR phosphorylation in a TpoR immunoprecipitated after 8 hours of 20 μg/mL 4D7 treatment compared to PBS or IgG control in TF-1 TpoR CALR^del61.
(§1) For immunoblotting of total lysates, cells were lysed in NP40 buffer containing 150 mM NaCl, 50 mM Tris pH 7.6, 1% NP-40, supplemented with protease inhibitors (Complete, Roche) and phosphatase inhibitor cocktails, and boiled for 5 minutes after addition of sample buffer (60 mM Tris pH 6.8, 5% glycerol, 1% SDS, 2% β-mercaptoethanol, 0.02% bromophenol blue) before SDS gel electrophoresis followed by Western blotting (Tvorogov et al, 2010). […]

[3] = system: 30 amino acid peptide corresponding to the C-terminal mutant CALR neoepitope sequence; assay: ELISA binding to peptide; parameters: species or system human
Method: (§2) Rats were immunised with a CALR mutant peptide “MMRTKMRMRRMRRT RRKMRRKMSPARPRTS” coupled to KLH, this peptide sequence is unique to CALR mutant. Serum from the immunised rats was screened by enzyme linked immunoassay, to verify a strong titre to the peptide immunogen, prior to performing the hybridoma fusion. Immunised rat spleen cells were harvested and a spleen single cell suspension was combined with Sp2/O myeloma cell line. The cell mixture was treated with polyethylene glycol plus DMEM prior to been plated in 96 well flat bottom plates. The expanding hybridomas were screened initially by ELISA and the positive clones were further verified by western blot, for reactivity to the expressed CALR mutant protein before subcloning the hybridomas for antibody production.

[4] = system: TF-1 TpoR CALR^del61 cells; assay: Cell proliferation, trypan blue exclusion; type: cell-based, human; settings: 5 or 20 μg/mL; FIG. 8
Method: […] Cells were seeded in triplicate and each well was counted in triplicate every 24 hours for 5 days using trypan blue exclusion.

[5] = biological target: T2, full-length 30 amino acid CALR mutant …; assay: ELISA on peptide
[6] = system: mutant CALR protein; assay: Western blot detection of mutant CALR by hybridoma clones; type: binding, human; settings: cell extracts from TF-1 cells transduced with and without mutant CALR; data not shown
Method: as §2
For immunoblotting of total lysates, cells were lysed in NP40 buffer containing 150 mM NaCl, 50 mM Tris pH 7.6, 1% NP-40, supplemented with protease inhibitors (Complete, Roche) and phosphatase inhibitor cocktails, and boiled for 5 minutes after addition of sample buffer (60 mM Tris pH 6.8, 5% glycerol, 1% SDS, 2% β-mercaptoethanol, 0.02% bromophenol blue) before SDS gel electrophoresis followed by Western blotting (Tvorogov et al, 2010). Primary antibodies against pERK (#9101), pSTAT5 (#9359), ERK (#4695), Actin (#4970), Caspase 3 (#14220), wildtype CALR (#12238) were purchased from Cell Signalling. Primary antibodies against pSTATI (#612233), pSTAT3 (#612357), STATI (#610186), STAT3 (#610190), STAT5 (#610192) and Anti-phosphotyrosine 4G10 (#610012) were purchased from BD Biosciences. Mutant CALR monoclonal antibody CAL2 was purchased from Dianova (Hamburg, Germany). Immunopreciptation of TpoR was performed in standard NP40 lysis buffer with additional 50 mM iodoacetamide to avoid any de novo disulfide bond formation post lysis. To reduce IgG background during immunoprecipitation anti-FLAG conjugated to magnetic beads (Sigma, #M8823) were used. For this same reason, anti-FLAG-HRP conjugated antibodies (Sigma, #A8592) were used in western blotting.

[7] = biological target: B1; assay: Western blot of TF-1 cell extracts (hybridoma clone screen)
Method: B. Replicate Scatchard analyses of 4D7 using I¹²⁵-labelled and unlabelled 4D7 bound to full-length peptide (n=3). C. […] Cells were cultured in the presence or absence of 10 ng/ml TPO (n=3). D. Paracrine CALR-mutant protein is not sufficient to maintain TPO sensitive cells in culture. TF1 TpoR and TF-1 TpoR CALR^del61 cells were seeded at the same density and cultured in the presence or absence of TPO. Cells were separated by semi-permeable membrane in a horizontal co-culture system. Cell populations on either side of the membrane were counted every 24 hours over 4 days in triplicate and representative images were taken on day 4. Exogenous CALR secreted by TF-1 TpoR CALR^del61 was unable to assist growth of factor dependent TF-1 TopR cells (n=3). E. Histogram overlays showing fluorescence intensity of unstained and PE conjugated IgG2a isotype control in TF-1, TF-1 TpoR and TF-1 TpoR CALR^del61 compared to 4D7 conjugated to PE.
as §1

## N#CC[C@H](C1CCCC1)n1cc(-c2ncnc3[nH]ccc23)cn1 [ruxolitinib]
[1]; 50 nM, P=0.008
  inhibition at 0.05 µM: > 30%
[1]; 100 nM, P=0.07
  inhibition at 0.1 µM: > 30%

## B1
[2]
  binding result: no binding

## B2
[3]
  binding to peptide by ELISA: positive binding
[4]
  proliferation of cytokine-independent TF1 TpoR/mutCALR cells: inhibit proliferation
[5]
  binding result: binds
[6]
  detecting mutant but not wild type CALR protein by Western blotting: superior activity
[7]
  binding result: no binding
